The values that follow come from PMC2920228.

For test [1], the target named is AgsA (aggregation-suppressing protein, small heat shock protein), wild type, His-tagged (Salmonella enterica serovar Typhimurium). In words: FRET or BRET; data not shown; subunit exchange of fluorescein- and rhodamine-labelled AgsA at 45°C, 40 min. (BRET reads energy transfer from a luciferase to a nearby fluorophore.)
Test [2] has the same target. In words: SEC; Superdex 200 XK 16/70, 20 mM Tris-HCl pH 8.0, 1 mM EDTA, 100 mM NaCl, run at 25°C; apparent mass from a calibration curve. Background: In gel filtration, larger molecules generally elute earlier.
Test [3] has as its target ΔC11, C-terminal 11 AA truncated AgsA, His-tagged (Salmonella enterica serovar Typhimurium). In words: SEC.
Test [4] shares this target. In words: SEC; Superdex 200 XK 16/70, 20 mM Tris-HCl pH 8.0, 1 mM EDTA, 100 mM NaCl, run at 37°C.
The target is the same in test [5]. In words: SEC; Superdex 200 XK 16/70, 20 mM Tris-HCl pH 8.0, 1 mM EDTA, 100 mM NaCl, run at 42°C.

On to “AgsA (aggregation-suppressing protein, small heat shock protein), wild type, His-tagged (natural protein)”, for which the decrease in donor fluorescence after 40 min in test [1] was found to be 40%. Also, in test [2], the stoichiometry N – broadly, the number of molecules, sites or subunits per partner or assembly – came to 22 subunits.
Turning to “ΔC11, C-terminal 11 AA truncated AgsA, His-tagged (domain or fragment)”, the figures for the stoichiometry N in test [3], in test [4] and in test [5] were 3 subunits, 2 subunits and 2 subunits, respectively.
